Consider one substance from publication PMC2719339.

Test [1] concerns the target thiostrepton resistance RNA methyltransferase (Tsr) (Streptomyces azureus) (UniProt P18644). As to the kind of experiment: native gel or EMSA.
For test [2] the target is unchanged. The test can be described thus: SEC. (SEC sorts molecules by how far they enter the pores of the column.)

One may read the stoichiometry N as a count of units in the complex or per binding partner. As to “thiostrepton resistance RNA methyltransferase (Tsr) (from UniProt P18644 1-269) (enzyme)”, the stoichiometry N in test [1] and in test [2] was 2 throughout.
